Results published in patent US20250108137A1, “APTAMERS SPECIFIC TO EBV-ASSOCIATED MALIGNANCIES AND THEIR APPLICATIONS IN CANCER IMAGING AND THERAPIES” (priority 2022, published 2025).

Experiments:
[1] = test system: NPC43^noEBV-LMP1 cells; experiment: Flow cytometry and confocal binding to LMP1-expressing cells vs vector control; settings: among 8 selected aptamers; flow cytometric analysis and confocal microscopy; FAM-tagged
Method: 10 μM aptamers or aptamer pools were dissolved in DBPS with 5 mM MgCl2 as stock and diluted with binding buffer (DBPS with 5 mM MgCl2, 0.1% BSA, […] and 0.45% glucose) into 200 nM, followed by heating at 95° C. to 5 mins and chilling on ice for 5 mins. Cells were trypsinized and incubated in the aptamer solution at 4° C. for 30-60 mins. After incubation, the cells were washed once by precooled binding buffer. At last, the samples were analyzed on BD flowcytometry. For flow cytometric analysis of bead assay, the NTA beads were incubated with CNBP-his or MTDH-his containing cell lysates or control lysates for 1 hr at 4° C. and then washed with binding buffer for 3 times. After that, the beads were incubated with FAM-Apt-2019 or FAM-Apt-1194 (200 nM) for 30 mins at 4° C. At last, the bead-aptamer complexes were washed 3 times with binding buffer and analyzed by BD flow cytometer. […]
(§1) Identification of Apt-2019 which preferentially binds to LMP1-expressing cells. […] Flow cytometric analyses have shown the gradual increase of fluorescence signals on NPC43^noEBV-LMP1 cells bound with the FAM-tagged aptamers enriched from round 9, 11 and 12 Cell-SELEX (FIG. 1A), indicating a successful enrichment process. […] 8 sequences were selected out based on the sequence similarity and abundance of sequence reads. […]

[2] = test system: LMP1-transfected cell lines including HONE1, C17 and NP460; experiment: Binding to other LMP1-transfected cell lines vs vector control; settings: compared to the vector control cells
Method: (§2) 10 μM aptamers or aptamer pools were dissolved in DBPS with 5 mM MgCl2 as stock and diluted with binding buffer (DBPS with 5 mM MgCl2, 0.1% BSA, […] and 0.45% glucose) into 200 nM, followed by heating at 95° C. to 5 mins and chilling on ice for 5 mins. Cells were trypsinized and incubated in the aptamer solution at 4° C. for 30-60 mins. After incubation, the cells were washed once by precooled binding buffer. At last, the samples were analyzed on BD flowcytometry. For flow cytometric analysis of bead assay, the NTA beads were incubated with CNBP-his or MTDH-his containing cell lysates or control lysates for 1 hr at 4° C. and then washed with binding buffer for 3 times. After that, the beads were incubated with FAM-Apt-2019 or FAM-Apt-1194 (200 nM) for 30 mins at 4° C. At last, the bead-aptamer complexes were washed 3 times with binding buffer and analyzed by BD flow cytometer.
as §1

[3] = target: T1, CNBP (Homo sapiens, UniProt P62633); experiment: Flow analysis of CNBP-tagged and non-tagged beads with Apt-2019-FAM; format: binding; settings: Apt-2019-FAM 200 nM; CNBP-tagged vs non-tagged beads
T1 construct: endogenous in cells; host or cells: LMP1-expressing NPC43(noEBV) cell lysate
T1 sequence (P62633 whole entry): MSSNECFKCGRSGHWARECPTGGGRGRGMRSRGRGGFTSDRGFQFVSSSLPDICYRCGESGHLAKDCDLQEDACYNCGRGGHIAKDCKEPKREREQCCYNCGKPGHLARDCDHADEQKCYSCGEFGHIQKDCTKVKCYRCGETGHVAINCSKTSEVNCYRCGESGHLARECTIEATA
Method: as §2
(§3) To identify the target surface protein which was bound by the Apt-2019 on LMP1-expressing cells, we have performed pull-down assay using Apt-2019. […] The proteins from this band were purified from the gel and subjected for protein identification by tandem mass spectrometry (MS/MS). […] To validate CNBP as the target of Apt-2019, the pull-down proteins from Apt-2019 and Apt-library in LMP1-cell lysates were blotted by the antibody against CNBP (FIG. 2A). […]

[4] = target: T1, CNBP; experiment: Pull-down assay with mass spectrometry and western blot (LMP1-cell lysates); format: binding; settings: band around 20 kd vs Apt-library; MS/MS; blotted with CNBP antibody
Method: (§4) The pulldown assay was performed by following the protocol from Shang Guan's lab. Then the protein samples were separated in PAGE gels and stained by pierce silver staining kit from Life Technology. The specific bands around 20 kDa or 70 kDa were sent to Biotech Company (Bei Jing) for mass spectrometry analysis.
To identify the target surface protein which was bound by the Apt-2019 on LMP1-expressing cells, we have performed pull-down assay using Apt-2019. […] The proteins from this band were purified from the gel and subjected for protein identification by tandem mass spectrometry (MS/MS). […] To validate CNBP as the target of Apt-2019, the pull-down proteins from Apt-2019 and Apt-library in LMP1-cell lysates were blotted by the antibody against CNBP (FIG. 2A). The docking model between the Apt-2019 and CNBP was also predicted by HDOCK (sec worldwide website: hdock.phys.hust.edu.cn/) (FIG. 2A). Another validation assay was done by flow analysis of CNBP-tagged and non-tagged beads after binding with Apt-2019-FAM (FIG. 2B). […] Moreover, Apt-2019-bounded CNBP was specifically expressed on the cell surface, as both the fluorescent signals of CNBP and Apt-2019 were localized on the ‘non-permeabilized’ NPC43-LMP1 cells. (FIG. 3A). […] All these confirmed Apt-2019 could bind to the cell surface CNBP on NPC cells. […]

[5] = test system: CNBP-knockout cells; experiment: Aptamer binding to CNBP-knockout vs parental NPC cells
Method: as §2, §3

[6] = Thioflavin T fluorescent enhancement assay for G-quadruplex formation; format: physicochemical; settings: lithium cacodylate buffer or potassium phosphate buffer
Text: Thioflavin T (ThT) is kind of G4 ligand dye, and its fluorescent signal would increase after binding to G4 structures. So, it is widely used in detecting G4 structure. The Apt-2019 was stained by ThT with the existence of Lit or Kt. Circular dichroism (CD) spectra was used for determination of the subtype of G4 structure.
Both Apt-2019 and Apt-1194 are guanine-rich oligonucleotides (GROs) in which the G content are 43 and 41% respectively. GROs can form stable G-quadruplex structures because four guanine bases form a square planar structure called a G-quartet through Hoogsteen base pairing, and these G-quartets spontaneously assemble into four-stranded helical structures termed G-quadruplex (G4) (FIG. 5A) (20). It is well known that G4-forming oligonucleotides are relatively stable against nuclease degradation (21). Therefore, we checked if Apt-2019 and Apt-1194 can form G4 using Thioflavin T (ThT) as a fluorescence light-up probe for G4 formation (22). […] The higher serum stability of Apt-2019 and Apt-1194 than random non-GC rich aptamers (FIG. 5D) can thus be explained by their stable G4 structure. To further characterize these novel NPC-targeting aptamers, we have measured their equilibrium dissociation constant (Kd).

[7] = test system: LMP1-overexpressing NPC43; experiment: Equilibrium dissociation constant on cells, FITC-tagged Apt-2019; format: binding; settings: serial concentrations of FITC-tagged aptamer
Text: (§5) FIGS. 5A-5G. Characterization of Apt-2019 and Apt-1194. (FIG. 5A) Diagram showing the G-quadraplex structure that can be formed by G-rich aptamers. (FIGS. 5B-5C) Fluorescent enhancement assay (FEA) was used to detect G-quadraplex forming sequences. Both Apt-2019 and Apt-1194 could form into G-quadraplex in the presence of K+ or L+ ions and then light up the ThT ligands. […] (FIGS. 5E-5F) A serial concentrations of FITC-tagged Apt-2019 and Apt-1194 were bound with LMP1-overexpressing NPC43 and EBV-positive C666-1 respectively. Equilibrium dissociation constant (Kd) was then calculated. (FIG. 5G) Apt-2019 was allowed to bind with live NPC cells for 45 mins. Internalization of Apt-2019 was validated by Z-stack imaging of confocal microscope.
(§6) 10 μM aptamers or aptamer pools were dissolved in DBPS with 5 mM MgCl2 as stock and diluted with binding buffer (DBPS with 5 mM MgCl2, 0.1% BSA, […] and 0.45% glucose) into 200 nM, followed by heating at 95° C. to 5 mins and chilling on ice for 5 mins. Cells were trypsinized and incubated in the aptamer solution at 4° C. for 30-60 mins. After incubation, the cells were washed once by precooled binding buffer. At last, the samples were analyzed on BD flowcytometry. […] At last, the bead-aptamer complexes were washed 3 times with binding buffer and analyzed by BD flow cytometer.

[8] = test system: LMP1-expressing NPC43 cells; experiment: Internalization by Z-stack confocal microscopy; format: cell-based; settings: live cells, 45 mins
Text: as §5
In live cell imaging, the NPC43-LMP1+ and NPC43-LMP1− cells were seeded in 3.5 cm confocal dishes 24 hrs before. The cells were washed with PBS 2 times and then incubated with 200 nM aptamers in binding buffer for 30 mins and washed with DPBS twice after. The Zeiss LSM880 was used for taking confocal images. In immunofluorescence and aptamer co-staining, the cells were fixed by 4% PFA for 15 mins and then blocked with 3% BSA for 1 hr. CNBP antibody was incubated with the cells in 1:100 dilution (Abclonal, 15110) for 1 hr followed with anti-Rabbit Alex-555 antibody (1:500) for 1 h. After washing for 3 times, FAM-Apt-2019 was added and incubated for 1 h.

[9] = test system: C15 tumors (an NPC xenograft with high expression of LMP1); experiment: In vivo fluorescence imaging of biodistribution, C15 xenograft; set-up: species or system mice; settings: fluorescence-tagged, tail vein injected, IVIS Spectrum imager
Text: Fluorescence-tagged Apt-2019 and Apt-1194 were tail vein injected in mice bearing C15 tumors (an NPC xenograft with high expression of LMP1 (18)) and EBV-positive C666-1 tumors respectively. We have also generated control aptamers to Apt-2019 and Apt-1194 by replacing all the G to C, so as to destroy the G4-forming ability. The resulting control aptamers are named as Apt-NG^2019 (SEQ ID NO: 4; Apt-NG^2019 (14-63) Aptamer: […]) and Apt-NG^1194 (SEQ ID NO:5; Apt-NG^1194 (1-58) Aptamer: […] GGCC). Tumors and organs (e.g., lungs and spleen) were taken out for fluorescence imaging (IVIS Spectrum imager).

[10] = compared with random aptamer sequences
[11] = test system: EBV-positive NPC cell lines (NPC43, C666-1 and C17); experiment: Binding to a panel of EBV-positive and EBV-negative cell lines; settings: EBV-positive NPC43, C666-1, C17; EBV-negative A549, NP460
Method: as §2
(§7) By binding of Apt-1194 & Apt-1798 with a panel of EBV-positive NPC cell lines (NPC43, C666-1 and C17), EBV-negative lung cancer cell line (A549) and nasopharyngcal cell line (NP460), the specificity of Apt-1194 to EBV-positive cells was confirmed (FIG. 4B). Proteins from NPC43 lysate were pulled down by Apt-1194. […] It has been reported that MTDH is a prognosis marker for NPC (19). […] Knockdown of MTDH could suppress proliferation and migration capability in NPC cells (FIG. 4F)

[12] = target: T2, MTDH (Homo sapiens, UniProt Q86UE4); experiment: Pull-down from NPC43 lysate with mass spectrometry and western blot; format: binding; settings: mass spectrometry, validated by Western blot
T2 construct: endogenous in cells; host or cells: EBV-positive NPC43 cells
T2 sequence (Q86UE4 1-582): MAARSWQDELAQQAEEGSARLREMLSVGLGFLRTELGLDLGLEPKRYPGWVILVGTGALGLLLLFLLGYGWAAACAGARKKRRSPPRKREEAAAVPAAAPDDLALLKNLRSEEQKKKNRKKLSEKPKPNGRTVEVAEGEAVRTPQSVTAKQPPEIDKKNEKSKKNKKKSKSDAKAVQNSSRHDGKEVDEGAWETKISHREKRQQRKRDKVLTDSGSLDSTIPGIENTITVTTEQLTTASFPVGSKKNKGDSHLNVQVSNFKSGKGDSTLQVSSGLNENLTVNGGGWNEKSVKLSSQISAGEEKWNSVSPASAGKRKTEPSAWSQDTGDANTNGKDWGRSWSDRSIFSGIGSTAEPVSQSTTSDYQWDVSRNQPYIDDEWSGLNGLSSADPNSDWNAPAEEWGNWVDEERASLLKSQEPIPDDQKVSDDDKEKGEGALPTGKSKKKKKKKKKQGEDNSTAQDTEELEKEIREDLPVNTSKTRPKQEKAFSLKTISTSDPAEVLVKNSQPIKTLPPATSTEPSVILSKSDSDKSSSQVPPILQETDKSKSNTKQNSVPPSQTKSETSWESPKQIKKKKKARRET
Method: as §4, §7

[13] = test system: EBV-positive C666-1; experiment: Equilibrium dissociation constant on cells, FITC-tagged Apt-1194; format: binding; settings: serial concentrations of FITC-tagged aptamer
Text: as §5, §6

[14] = test system: EBV-positive C666-1 tumors; experiment: In vivo fluorescence imaging of biodistribution, C666-1 tumors; set-up: species or system mice; settings: fluorescence-tagged, tail vein injected, IVIS Spectrum imager
Text: Fluorescence-tagged Apt-2019 and Apt-1194 were tail vein injected in mice bearing C15 tumors (an NPC xenograft with high expression of LMP1 (18)) and EBV-positive C666-1 tumors respectively. […] Tumors and organs (e.g., lungs and spleen) were taken out for fluorescence imaging (IVIS Spectrum imager).

B1: Apt-2019: DNA aptamer, SEQ ID NO: 1, from Cell-SELEX on LMP1-expressing NPC43 cells; binds CNBP (nucleic acid)
DNA: ATCCAGAGTGACGCAGCAGAATGGGTGGGATTCCTCAGAGGGGTTGGTGAGTTTGTGATGGACACGGTGGCTTAGT
modifications: DNA, backbone and methylation of C not given here; further chemistry not fully specified
preferential binding to LMP1-expressing cells [1]: highest preferential binding to LMP1-expressing cells | specific binding ability in LMP1-transfected cell lines [2]: could preferentially bind to all these LMP1-overexpressing cells | binding to CNBP-tagged beads [3]: could specifically bind to the CNBP-tagged beads | target identified by pull-down [4]: CNBP was found to be the potential target | binding after CRISPR-knockout of CNBP [5]: inhibited the binding | G-quadruplex (G4) formation, ThT light-up [6]: could fold into G4 | equilibrium dissociation constant (Kd) [7]: nanomolar range | internalization into cells [8]: could be internalized | accumulation in the tumors [9]: accumulation | serum stability [10]: much higher serum stability than random aptamer sequences

B2: Apt-1798: DNA aptamer, SEQ ID NO: 3, top enriched sequence targeting EBV-positive cells (nucleic acid)
DNA: ATCCAGAGTGACGCAGCAATCGTGGACCTGGCTGTGGTTTGCTGAGGTGGGCGCCAATTGGACACGGTGGCTTAGT
modifications: DNA, backbone and methylation of C not given here
specific binding to EBV-positive vs EBV-negative cell lines [11]: could bind specifically to EBV-positive cell lines but not to EBV-negative cell lines

B3: Apt-1194: DNA aptamer, SEQ ID NO: 2, from Cell-SELEX and in vivo-SELEX on EBV-positive NPC43; binds MTDH (nucleic acid)
DNA: ATCCAGAGTGACGCAGCACCGAGCGAGTTGGTTTGCTGCGGTGGGCAGAGAGGTGGGGTGGACACGGTGGCTTAGT
modifications: DNA, backbone and methylation of C not given here; further chemistry not fully specified
specific binding to EBV-positive vs EBV-negative cell lines [11]: could bind specifically to EBV-positive cell lines but not to EBV-negative cell lines | target identified by pull-down [12]: MTDH was found to be the target | G-quadruplex (G4) formation, ThT light-up [6]: could fold into G4 | equilibrium dissociation constant (Kd) [13]: nanomolar range | accumulation in the tumors [14]: accumulation | serum stability [10]: much higher serum stability than random aptamer sequences
